According to article doi:10.1101/2021.02.03.429618 (bioRxiv, 2021):

Target: T1, human 2-oxoglutarate dehydrogenase (hE1o) (human, UniProt Q02218 41-1023)
T1 sequence (looked up): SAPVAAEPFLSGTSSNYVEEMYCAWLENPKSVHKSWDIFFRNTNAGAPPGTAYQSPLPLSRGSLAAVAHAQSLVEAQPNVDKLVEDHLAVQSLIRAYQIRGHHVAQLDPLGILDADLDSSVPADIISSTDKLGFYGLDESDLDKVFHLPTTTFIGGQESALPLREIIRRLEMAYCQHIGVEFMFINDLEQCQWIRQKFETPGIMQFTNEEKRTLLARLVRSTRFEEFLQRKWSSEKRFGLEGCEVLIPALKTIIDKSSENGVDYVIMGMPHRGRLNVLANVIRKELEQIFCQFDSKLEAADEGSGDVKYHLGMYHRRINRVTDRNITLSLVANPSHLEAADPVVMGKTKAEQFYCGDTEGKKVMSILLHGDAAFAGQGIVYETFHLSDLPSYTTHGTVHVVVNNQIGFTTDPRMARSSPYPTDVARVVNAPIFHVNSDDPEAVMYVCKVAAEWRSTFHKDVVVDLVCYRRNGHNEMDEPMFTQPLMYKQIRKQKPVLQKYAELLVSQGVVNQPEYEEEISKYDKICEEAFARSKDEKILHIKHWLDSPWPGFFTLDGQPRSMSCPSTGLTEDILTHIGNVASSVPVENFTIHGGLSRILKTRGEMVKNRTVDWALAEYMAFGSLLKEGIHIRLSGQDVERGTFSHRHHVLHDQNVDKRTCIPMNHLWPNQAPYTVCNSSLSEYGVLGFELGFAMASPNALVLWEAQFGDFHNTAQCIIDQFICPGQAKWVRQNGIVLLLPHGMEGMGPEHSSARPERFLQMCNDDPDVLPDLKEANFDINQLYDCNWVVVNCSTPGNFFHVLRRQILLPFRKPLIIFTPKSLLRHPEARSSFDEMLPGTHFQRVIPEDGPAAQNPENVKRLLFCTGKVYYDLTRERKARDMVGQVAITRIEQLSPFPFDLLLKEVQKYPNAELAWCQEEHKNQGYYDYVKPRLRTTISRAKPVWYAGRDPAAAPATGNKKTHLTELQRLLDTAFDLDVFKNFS
Assay: cross-linking

- binding result: binds
B1: human dihydrolipoyl succinyltransferase (hE2o) (enzyme, UniProt P36957 68-453, looked up)
chain: DDLVTVKTPAFAESVTEGDVRWEKAVGDTVAEDEVVCEIETDKTSVQVPSPANGVIEALLVPDGGKVEGGTPLFTLRKTGAAPAKAKPAEAPAAAAPKAEPTAAAVPPPAAPIPTQMPPVPSPSQPPSGKPVSAVKPTVAPPLAEPGAGKGLRSEHREKMNRMRQRIAQRLKEAQNTCAMLTTFNEIDMSNIQEMRARHKEAFLKKHNLKLGFMSAFVKASAFALQEQPVVNAVIDDTTKEVVYRDYIDISVAVATPRGLVVPVIRNVEAMNFADIERTITELGEKARKNELAIEDMDGGTFTISNGGVFGSLFGTPIINPPQSAILGMHGIFDRPVAIGGKVEVRPMMYVALTYDHRLIDGREAVTFLRKIKAAVEDPRVLLLDL
